# T1: G9a and GLP (Homo sapiens, UniProt Q96KQ7+Q9H9B1)
# T1 sequence (Q96KQ7 2-1210 limits assumed): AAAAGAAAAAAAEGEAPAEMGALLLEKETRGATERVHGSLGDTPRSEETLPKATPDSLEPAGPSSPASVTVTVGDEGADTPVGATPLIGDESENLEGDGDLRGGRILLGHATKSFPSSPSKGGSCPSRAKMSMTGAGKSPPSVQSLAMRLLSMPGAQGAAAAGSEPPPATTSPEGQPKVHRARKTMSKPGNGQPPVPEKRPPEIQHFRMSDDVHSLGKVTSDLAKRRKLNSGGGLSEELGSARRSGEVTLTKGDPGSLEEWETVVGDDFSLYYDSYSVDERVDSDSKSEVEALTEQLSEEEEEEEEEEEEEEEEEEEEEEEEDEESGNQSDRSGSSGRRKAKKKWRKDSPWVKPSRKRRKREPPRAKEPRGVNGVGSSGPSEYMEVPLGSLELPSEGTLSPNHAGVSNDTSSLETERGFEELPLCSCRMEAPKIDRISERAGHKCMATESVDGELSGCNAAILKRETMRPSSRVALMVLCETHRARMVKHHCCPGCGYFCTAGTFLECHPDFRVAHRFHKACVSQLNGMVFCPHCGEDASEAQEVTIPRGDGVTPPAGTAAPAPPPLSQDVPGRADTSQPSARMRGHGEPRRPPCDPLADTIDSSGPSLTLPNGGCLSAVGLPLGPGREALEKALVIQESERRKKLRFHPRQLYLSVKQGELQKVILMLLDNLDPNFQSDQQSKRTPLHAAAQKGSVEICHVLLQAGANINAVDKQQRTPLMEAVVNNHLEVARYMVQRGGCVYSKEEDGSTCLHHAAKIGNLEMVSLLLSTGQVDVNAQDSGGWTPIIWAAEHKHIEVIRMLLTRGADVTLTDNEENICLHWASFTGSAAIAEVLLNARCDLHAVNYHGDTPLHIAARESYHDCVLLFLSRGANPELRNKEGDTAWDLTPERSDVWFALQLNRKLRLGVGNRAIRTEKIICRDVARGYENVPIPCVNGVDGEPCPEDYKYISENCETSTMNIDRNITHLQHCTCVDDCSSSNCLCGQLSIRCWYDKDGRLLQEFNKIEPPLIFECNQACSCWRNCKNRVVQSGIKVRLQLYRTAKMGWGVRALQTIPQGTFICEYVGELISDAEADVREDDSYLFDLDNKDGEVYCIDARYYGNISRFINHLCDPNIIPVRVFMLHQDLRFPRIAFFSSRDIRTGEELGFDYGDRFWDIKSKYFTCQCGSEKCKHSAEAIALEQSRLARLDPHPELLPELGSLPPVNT
# T1 sequence (Q9H9B1 2-1298 limits assumed): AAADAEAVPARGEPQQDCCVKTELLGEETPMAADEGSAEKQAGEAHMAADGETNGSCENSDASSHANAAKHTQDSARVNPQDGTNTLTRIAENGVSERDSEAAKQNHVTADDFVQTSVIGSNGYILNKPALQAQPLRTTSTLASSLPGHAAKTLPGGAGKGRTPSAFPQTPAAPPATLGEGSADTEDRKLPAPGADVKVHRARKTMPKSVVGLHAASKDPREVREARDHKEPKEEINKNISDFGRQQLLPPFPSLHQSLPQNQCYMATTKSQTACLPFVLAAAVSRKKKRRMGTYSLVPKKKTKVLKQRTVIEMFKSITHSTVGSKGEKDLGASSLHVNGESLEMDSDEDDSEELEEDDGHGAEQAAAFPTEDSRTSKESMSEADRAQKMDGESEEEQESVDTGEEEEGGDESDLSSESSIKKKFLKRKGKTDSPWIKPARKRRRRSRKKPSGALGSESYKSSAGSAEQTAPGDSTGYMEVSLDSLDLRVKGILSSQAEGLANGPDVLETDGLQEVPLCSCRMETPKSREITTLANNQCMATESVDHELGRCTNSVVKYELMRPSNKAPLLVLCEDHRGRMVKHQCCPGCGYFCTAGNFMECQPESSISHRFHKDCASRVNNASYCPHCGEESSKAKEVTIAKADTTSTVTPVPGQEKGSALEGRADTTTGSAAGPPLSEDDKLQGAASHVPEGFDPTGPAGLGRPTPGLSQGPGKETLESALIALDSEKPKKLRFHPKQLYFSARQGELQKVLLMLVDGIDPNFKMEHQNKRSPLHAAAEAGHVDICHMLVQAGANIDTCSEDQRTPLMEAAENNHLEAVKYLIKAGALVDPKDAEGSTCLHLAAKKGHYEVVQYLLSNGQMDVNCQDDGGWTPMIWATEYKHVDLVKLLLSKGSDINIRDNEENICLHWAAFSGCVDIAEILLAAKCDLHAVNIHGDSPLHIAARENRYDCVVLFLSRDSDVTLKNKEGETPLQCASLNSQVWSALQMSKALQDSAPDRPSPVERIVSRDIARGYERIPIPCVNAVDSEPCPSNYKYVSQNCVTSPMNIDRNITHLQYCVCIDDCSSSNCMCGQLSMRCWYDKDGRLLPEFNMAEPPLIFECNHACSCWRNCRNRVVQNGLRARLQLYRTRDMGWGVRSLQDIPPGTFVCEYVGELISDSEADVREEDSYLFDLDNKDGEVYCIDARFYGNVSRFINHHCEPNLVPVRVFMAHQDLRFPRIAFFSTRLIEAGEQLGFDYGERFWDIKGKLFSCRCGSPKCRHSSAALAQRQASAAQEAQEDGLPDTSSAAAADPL
# B1: RBM39 (protein, UniProt Q14498 2-530, looked up)
# RNA-binding protein 39: ADDIDIEAMLEAPYKKDENKLSSANGHEERSKKRKKSKSRSRSHERKRSKSKERKRSRDRERKKSKSRERKRSRSKERRRSRSRSRDRRFRGRYRSPYSGPKFNSAIRGKIGLPHSIKLSRRRSRSKSPFRKDKSPVREPIDNLTPEERDARTVFCMQLAARIRPRDLEEFFSTVGKVRDVRMISDRNSRRSKGIAYVEFVDVSSVPLAIGLTGQRVLGVPIIVQASQAEKNRAAAMANNLQKGSAGPMRLYVGSLHFNITEDMLRGIFEPFGRIESIQLMMDSETGRSKGYGFITFSDSECAKKALEQLNGFELAGRPMKVGHVTERTDASSASSFLDSDELERTGIDLGTTGRLQLMARLAEGTGLQIPPAAQQALQMSGSLAFGAVAEFSFVIDLQTRLSQQTEASALAAAASVQPLATQCFQLSNMFNPQTEEEVGWDTEIKDDVIEECNKHGGVIHIYVDKNSAQGNVYVKCPSIAAAIAAVNALHGRWFAGKMITAAYVPLPTYHNLFPDSMTATQLLVPSRR
# B2: IARS (protein, UniProt P41252 1-1262, looked up)
# Isoleucine--tRNA ligase, …: MLQQVPENINFPAEEEKILEFWTEFNCFQECLKQSKHKPKFTFYDGPPFATGLPHYGHILAGTIKDIVTRYAHQSGFHVDRRFGWDCHGLPVEYEIDKTLGIRGPEDVAKMGITEYNNQCRAIVMRYSAEWKSTVSRLGRWIDFDNDYKTLYPQFMESVWWVFKQLYDKGLVYRGVKVMPFSTACNTPLSNFESHQNYKDVQDPSVFVTFPLEEDETVSLVAWTTTPWTLPSNLAVCVNPEMQYVKIKDVARGRLLILMEARLSALYKLESDYEILERFPGAYLKGKKYRPLFDYFLKCKENGAFTVLVDNYVKEEEGTGVVHQAPYFGAEDYRVCMDFNIIRKDSLPVCPVDASGCFTTEVTDFAGQYVKDADKSIIRTLKEQGRLLVATTFTHSYPFCWRSDTPLIYKAVPSWFVRVENMVDQLLRNNDLCYWVPELVREKRFGNWLKDARDWTISRNRYWGTPIPLWVSDDFEEVVCIGSVAELEELSGAKISDLHRESVDHLTIPSRCGKGSLHRISEVFDCWFESGSMPYAQVHYPFENKREFEDAFPADFIAEGIDQTRGWFYTLLVLATALFGQPPFKNVIVNGLVLASDGQKMSKRKKNYPDPVSIIQKYGADALRLYLINSPVVRAENLRFKEEGVRDVLKDVLLPWYNAYRFLIQNVLRLQKEEEIEFLYNENTVRESPNITDRWILSFMQSLIGFFETEMAAYRLYTVVPRLVKFVDILTNWYVRMNRRRLKGENGMEDCVMALETLFSVLLSLCRLMAPYTPFLTELMYQNLKVLIDPVSVQDKDTLSIHYLMLPRVREELIDKKTESAVSQMQSVIELGRVIRDRKTIPIKYPLKEIVVIHQDPEALKDIKSLEKYIIEELNVRKVTLSTDKNKYGIRLRAEPDHMVLGKRLKGAFKAVMTSIKQLSSEELEQFQKTGTIVVEGHELHDEDIRLMYTFDQATGGTAQFEAHSDAQALVLLDVTPDQSMVDEGMAREVINRIQKLRKKCNLVPTDEITVYYKAKSEGTYLNSVIESHTEFIFTTIKAPLKPYPVSPSDKVLIQEKTQLKGSELEITLTRGSSLPGPACAYVNLNICANGSEQGGVLLLENPKGDNRLDLLKLKSVVTSIFGVKNTELAVFHDETEIQNQTDLLSLSGKTLCVTAGSAPSLINSSSTLLCQYINLQLLNAKPQECLMGTVGTLLLENPLGQNGLTHQGLLYEAAKVFGLRSRKLKLFLNETQTQEITEDIPVKTLNMKTVYVSVLPTTADF
# B3: DHX36 (protein, UniProt Q9H2U1 1-1008, looked up)
# ATP-dependent DNA/RNA …: MSYDYHQNWGRDGGPRSSGGGYGGGPAGGHGGNRGSGGGGGGGGGGRGGRGRHPGHLKGREIGMWYAKKQGQKNKEAERQERAVVHMDERREEQIVQLLNSVQAKNDKESEAQISWFAPEDHGYGTEVSTKNTPCSENKLDIQEKKLINQEKKMFRIRNRSYIDRDSEYLLQENEPDGTLDQKLLEDLQKKKNDLRYIEMQHFREKLPSYGMQKELVNLIDNHQVTVISGETGCGKTTQVTQFILDNYIERGKGSACRIVCTQPRRISAISVAERVAAERAESCGSGNSTGYQIRLQSRLPRKQGSILYCTTGIILQWLQSDPYLSSVSHIVLDEIHERNLQSDVLMTVVKDLLNFRSDLKVILMSATLNAEKFSEYFGNCPMIHIPGFTFPVVEYLLEDVIEKIRYVPEQKEHRSQFKRGFMQGHVNRQEKEEKEAIYKERWPDYVRELRRRYSASTVDVIEMMEDDKVDLNLIVALIRYIVLEEEDGAILVFLPGWDNISTLHDLLMSQVMFKSDKFLIIPLHSLMPTVNQTQVFKRTPPGVRKIVIATNIAETSITIDDVVYVIDGGKIKETHFDTQNNISTMSAEWVSKANAKQRKGRAGRVQPGHCYHLYNGLRASLLDDYQLPEILRTPLEELCLQIKILRLGGIAYFLSRLMDPPSNEAVLLSIRHLMELNALDKQEELTPLGVHLARLPVEPHIGKMILFGALFCCLDPVLTIAASLSFKDPFVIPLGKEKIADARRKELAKDTRSDHLTVVNAFEGWEEARRRGFRYEKDYCWEYFLSSNTLQMLHNMKGQFAEHLLGAGFVSSRNPKDPESNINSDNEKIIKAVICAGLYPKVAKIRLNLGKKRKMVKVYTKTDGLVAVHPKSVNVEQTDFHYNWLIYHLKMRTSSIYLYDCTEVSPYCLLFFGGDISIQKDNDQETIAVDEWIVFQSPARIAHLVKELRKELDILLQEKIESPHPVDWNDTKSRDCAVLSAIIDLIKTQEKATPRNFPPRFQDGYYS
# Assays:
# 3×MBT domain of L3MBTL1 = test: Triple SILAC pull-down, 3xMBT/3xMBTD355N ratio (cytoplasmic, nuclear and chromatin fractions of 293T cells); type: binding, human; settings: SILAC ratio 3xMBT vs 3xMBTD355N pull-down, 293T cells, all values in log base 2; for 3xMBT/D355N UNC Heavy: experiment with UNC0638 in heavy SILAC media; for 3xMBT/D355N UNC Light: experiment with UNC0638 in light SILAC media;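 as to all read-outs here: proteins quantified with MaxQuant, requiring at least two unique peptides and quantification in both label directions, normalized to the mean of proteins from a digested loading control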
# Protocol: For stable isotope labeling by amino acids in cell culture (SILAC) experiments HEK 293T cells were grown for at least six doublings in DMEM for SILAC supplemented with 10% dialyzed fetal bovine serum (FBS), 230 mg/L L-proline and either 100 mg/L each of L-lysine and L-arginine (“light” medium), D4-L-lysine and ^13C6-L-arginine (“medium” media), or ^13C6^15N2-L-lysine and ^13C6^15N4-L-arginine (Thermo Scientific). Heavy methyl labeling used DMEM without L-Methionine or L-Cysteine supplemented with D3^13C-L-Methionine (Sigma), L-Cysteine (Sigma) and 10% dialyzed FBS.
# For UNC0638 treatments cells were treated for 24 hours with UNC0638 at 2.5 μM or DMSO vehicle control. One experiment treated cells in light media with UNC0638, the other treated cells in heavy media. Both experiments included cells in medium media treated with DMSO for negative control pull-down with 3×MBTD355N.
# UNC0638 treatment experiments used a Q-Exactive mass spectrometer (ThermoFisher Scientific). A 25 cm HPLC column with 3 μm Reliasil (Orochem) was used to separate peptides over a 4 hour gradient from 0 to 75% acetonitrile. Ions were generated using a custom nanospray source flowing at 250 nL/minute. Mass spectrometry settings were 70,000 MS1 resolution, data dependent selection of up to 20 precursor ions per cycle, dynamic exclusion of 30 seconds and isolation window of 2 m/z. The nuclear fraction from the experiment using UNC0638 on cells in heavy media was additionally analyzed by 2D HPLC-MS/MS as described earlier.
# Peptides were identified and quantified using MaxQuant version 1.2.2.5 (Cox and Mann, supra) with the following changes to default settings: mono- and di-methylation of lysine, and oxidation of methionine, and N-terminal acetylation as variable modifications, disabled “I=L”, up to three modifications per peptide, one missed cleavage, maximum charge of 5. Protein and peptide FDR were set to 1%, and proteins were filtered post-hoc for at least two unique peptides. Proteins were excluded from an experiment if they were not quantified in both labeling directions. Because FDR is unreliable for small numbers of peptides the modification site FDR was set to 10% and all methylated peptides were manually verified. […] Quantitative protein data was normalized to the mean value among proteins identified by analyzing 50 ng of digested loading control.
# For UNC0638 experiments the treated vs. untreated ratio was determined by subtracting the value from 3×MBTD355N prior to dividing values from the light and heavy channels. Only proteins showing a two-fold signal to background ratio (3×MBT/3×MBTD355N) were evaluated as potential G9a/GLP substrates.
# G9a and GLP = target: T1, G9a and GLP; test: Triple SILAC pull-down after UNC0638 treatment of 293T cells, DMSO/UNC0638 ratio of protein captured by 3×MBT; type: cell-based; parameters: endogenous in cells; host or cells: HEK 293T; settings: all values in log base 2; for Relative to UNC0638 UNC Heavy / Relative to UNC0638 UNC Light: SILAC ratio DMSO relative to UNC0638, pull-down with 3xMBT; for Relative to UNC0638 UNC Heavy: UNC0638 in heavy SILAC media; for Relative to UNC0638 UNC Light: UNC0638 in light SILAC media; for Relative to UNC0638 Average: average of UNC Light and UNC Heavy experiments;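 as to all read-outs here: mass spectrometry (Q-Exactive) SILAC quantitation, DMSO/UNC0638 ratio computed after subtracting 3×MBTD355N mutant pull-down background, only proteins with at least twofold 3×MBT over mutant signal considered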
Molecule,3xMBT/D355N UNC Heavy (3×MBT domain of L3MBTL1),3xMBT/D355N UNC Light (3×MBT domain of L3MBTL1),Relative to UNC0638 UNC Heavy (G9a and GLP),Relative to UNC0638 UNC Light (G9a and GLP),Relative to UNC0638 Average (G9a and GLP)
B1,2.04 log base 2,0.93 log base 2,0.03 log base 2,−0.03 log base 2,0.00 log base 2
B2,2.10 log base 2,2.25 log base 2,−0.19 log base 2,0.21 log base 2,0.01 log base 2
B3,1.95 log base 2,2.83 log base 2,0.19 log base 2,−0.24 log base 2,−0.02 log base 2

# — patent US20140274782A1, “AFFINITY REAGENTS AND METHODS FOR DETECTION, PURIFICATION, AND PROTEOMIC ANALYSIS OF METHYLATED PROTEINS” (The Board of Trustees of the Leland Stanford Junior …, priority 2013, published 2014)
